# Data reported in article PMC4259466 (Nature communications, 2014).
# Target: Aurora B-phosphorylated WT His-PKM2 (human, UniProt P14618 1-531, phosphothreonine at 45 (by Aurora B in vitro))
# Test: pull-down
# Sequence of Aurora B-phosphorylated WT His-PKM2 (P14618 whole entry): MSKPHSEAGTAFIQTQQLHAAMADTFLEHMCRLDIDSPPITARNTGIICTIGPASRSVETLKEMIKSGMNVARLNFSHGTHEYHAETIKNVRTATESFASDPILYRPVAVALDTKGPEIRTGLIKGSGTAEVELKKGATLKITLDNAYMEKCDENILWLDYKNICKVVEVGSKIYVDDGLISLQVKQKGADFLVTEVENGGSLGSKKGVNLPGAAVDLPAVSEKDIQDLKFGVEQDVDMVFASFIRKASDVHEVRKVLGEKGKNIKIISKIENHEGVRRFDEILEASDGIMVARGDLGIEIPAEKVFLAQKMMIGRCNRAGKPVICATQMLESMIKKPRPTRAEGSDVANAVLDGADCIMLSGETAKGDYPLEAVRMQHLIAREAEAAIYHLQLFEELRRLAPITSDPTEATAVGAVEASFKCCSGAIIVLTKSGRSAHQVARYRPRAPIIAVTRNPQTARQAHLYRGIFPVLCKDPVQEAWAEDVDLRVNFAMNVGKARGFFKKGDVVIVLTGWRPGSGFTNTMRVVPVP
binder,measurement,value
"GST-MLC2 (wild type, recombinant) (natural protein) MAPKKAKKRAGGANSNVFSMFEQTQIQEFKEAFTIMDQNRDGFIDKNDLRDTFAALGRVNVKNEEIDEMIKEAPGPINFTVFLTMFGEKLKGADPEETILNAFKVFDPEGKGVLKADYVREMLTTQAERFSKEEVDQMFAAFPPDVTGNLDYKNLVHIITHGEEKD",binding result,binds
